According to patent US20230287046A1, “MOLECULES TARGETING PROTEINS” (AELIN THERAPEUTICS, priority 2020, published 2023):
Substitutions are numbered along the chain they refer to.

Columns and labels:
ITK R29C = biological target: T1, ITK R29C (Homo sapiens, UniProt Q08881, R29C); experiment: ITK in vitro translation assay with streptavidin pull-down, R29C; conditions: 10 μM biotinylated pept-in, fraction binding normalized over vehicle
T1 construct: made in house; host or cells: cell-free: PURExpress In Vitro Protein Synthesis Kit (New England Biolabs)
T1 sequence (Q08881 1-620 R29C): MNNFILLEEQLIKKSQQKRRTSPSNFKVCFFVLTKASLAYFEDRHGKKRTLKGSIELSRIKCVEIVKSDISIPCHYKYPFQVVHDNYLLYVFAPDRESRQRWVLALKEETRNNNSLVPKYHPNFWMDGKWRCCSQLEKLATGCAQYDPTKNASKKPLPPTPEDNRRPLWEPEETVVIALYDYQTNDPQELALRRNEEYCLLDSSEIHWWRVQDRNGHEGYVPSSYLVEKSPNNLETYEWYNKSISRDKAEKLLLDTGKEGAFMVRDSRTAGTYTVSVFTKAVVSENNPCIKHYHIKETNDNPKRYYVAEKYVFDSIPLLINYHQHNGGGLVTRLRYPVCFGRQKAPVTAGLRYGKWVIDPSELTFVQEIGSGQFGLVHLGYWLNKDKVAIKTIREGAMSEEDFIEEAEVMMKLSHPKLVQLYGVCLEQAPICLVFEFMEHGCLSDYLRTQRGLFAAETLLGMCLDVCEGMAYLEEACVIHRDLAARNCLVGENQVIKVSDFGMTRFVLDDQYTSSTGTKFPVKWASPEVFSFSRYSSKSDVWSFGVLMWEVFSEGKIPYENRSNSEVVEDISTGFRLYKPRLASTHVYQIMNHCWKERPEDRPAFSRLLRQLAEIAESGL
Experimental: (§1) An in vitro translation approach was used to assess ITK mutant selective binding over wild-type for the 22-006-N001 and 22-018-N001 pept-ins. In particular, in vitro translation assays were performed using the PURExpress® In Vitro Protein Synthesis Kit (New England Biolabs) according to the manufacturer's instructions. Briefly, linear DNA fragments containing T7 promotor and terminator sequences flanking the […] (SEQ ID NO: 68)-tagged ITK coding sequence were generated using PCR and purified using the MinElute PCR Purification Kit (Qiagen). 250 ng of linear DNA was subsequently used for the in vitro translation reaction, which was performed for 2 hrs at 37° C. with shaking (1000 rpm). Indicated biotinylated pept-ins were mixed in the translation reactions from a 5 mM stock solution in 6M Urea to a final concentration of 10 μM. Upon completion of the translation reaction, biotinylated pept-ins were captured from the reaction mix using Streptavidin coated beads (Pierce) during 90 min at room temperature. Beads were next washed with TBS containing 0.1% Tween 20 and bound proteins were finally boiled off in 1×SDS loading dye (Bio-Rad) in TBS buffer. Proteins were resolved using Any kD 15-well Mini-PROTEAN gels (Bio-Rad) during SDS-PAGE and probed for ITK using a rabbit anti-[…] (SEQ ID NO: 68) tag antibody (Cell Signaling 14793) after Western blotting.

ITK R29L = biological target: T2, ITK R29L (Homo sapiens, UniProt Q08881, R29L); experiment: ITK in vitro translation assay with streptavidin pull-down, R29L; conditions: 10 μM biotinylated pept-in, fraction binding normalized over vehicle
T2 construct: made in house; host or cells: cell-free: PURExpress In Vitro Protein Synthesis Kit (New England Biolabs)
T2 sequence (Q08881 1-620 R29L): T1 sequence (Q08881 1-620 R29C) with C29L
Experimental: as §1

Sequence | binding to ITK R29C over wild-type (ITK R29C) | binding to ITK R29L over wild-type (ITK R29L)
AKVCFFVKGSKVCFFVK (ITK pept-in) [22-006-N001] | Selective binding to the mutant over wild-type | 
AKVLFFVKGSKVLFFVK (ITK pept-in) [22-018-N001] |  | Selective binding to the mutant over wild-type
